The results in this text go back to patent US5886163, “HIV-1 antigens, antibody compositions related thereto, and therapeutic and prophylactic uses thereof” (Progenics Pharmaceuticals, Inc., dated 1999).

The experiment addresses human CD4 on the membrane surface of DG44 #3 cells (human, UniProt P01730). Kind of experiment: FACS on DG44 #3 cells (CHO cells transfected with human CD4 cDNA).

B1: HIV-1 gp120LAI (ligand)
chain: not shown
B1: the binding result was “binds”.
